Experimental data as given in PMC11962161.

Tests used:
[1] = molecular target: FCA-mScarlet-I (Arabidopsis thaliana); assay: single-particle tracking with stepwise photobleaching (SlimVar microscopy); fluorescent FCA fusions in nuclei of living Arabidopsis root tissue, 10 ms/frame; molecules per tracked particle from initial intensity over single-molecule brightness; control and sof78 backgrounds for FCA-eGFP
[2] = molecular target: MBP-PrLD (purified recombinant FCA C-terminal half containing prion-like domains) (Arabidopsis); assay: SEC-MALS; Superdex-200 10/300 GL, 40 mM Tris-HCl pH 7.4, 500 mM NaCl; protein at 2 mg/mL; self-association

Substance	stoichiometry N [1] [molecules]	stoichiometry N [2] [molecules]
FCA-mScarlet-I (natural protein)	4	
MBP-PrLD (purified recombinant FCA C-terminal half containing prion-like domains) (domain or fragment)		> 100
